Measurements as given in the supplement of paper PMC9112550, “Optimization of the antimicrobial peptide Bac7 by deep mutational scanning” (BMC Biology, 2022).

Test system: Escherichia coli TOP10
Assay: shrunken log2 fold change of peptide-encoding DNA abundance (4.5 h post-induction vs induction); higher = less antimicrobial activity (less host growth inhibition)
Conditions: time post-induction: 4.5 h; library: site-saturation at positions 5, 18, 19, 20
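Note: peptides expressed intracellularly from a pBAD plasmid library in pooled LB shake-flask culture, induced with 0.3% L-arabinose, DNA abundance read by NGS, three biological replicates, DESeq2 with apeglm shrinkage.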

Sequence	shrunken log2 fold change
RRIRYRPPRLPRPRPRPGTTPRP	-0.0671
RRIRSRPPRLPRPRPRPSVTPRP	-0.171
RRIRLRPPRLPRPRPRPPQPPRP	0.816
RRIRYRPPRLPRPRPRPMLLPRP	-0.871
RRIRERPPRLPRPRPRPWWCPRP	-0.426
RRIRNRPPRLPRPRPRPMQNPRP	-0.11
RRIRCRPPRLPRPRPRPWDCPRP	-0.469
RRIRRRPPRLPRPRPRPRDGPRP	0.731
RRIRMRPPRLPRPRPRPNIQPRP	-0.112
RRIRWRPPRLPRPRPRPTVIPRP	0.0385
RRIRMRPPRLPRPRPRPYLTPRP	-0.268
RRIRWRPPRLPRPRPRPVMSPRP	-0.172
RRIRVRPPRLPRPRPRPKYWPRP	-0.126
RRIRHRPPRLPRPRPRPLSTPRP	-0.0859
RRIRSRPPRLPRPRPRPQGYPRP	-0.139
RRIRCRPPRLPRPRPRPHACPRP	-0.281
RRIRIRPPRLPRPRPRPNHAPRP	-0.0782
RRIRQRPPRLPRPRPRPLKQPRP	-0.151
RRIRTRPPRLPRPRPRPPLHPRP	0.0532
RRIRVRPPRLPRPRPRPADLPRP	0.0387
RRIRLRPPRLPRPRPRPLSQPRP	0.00591
RRIRHRPPRLPRPRPRPIEIPRP	-0.161
RRIRYRPPRLPRPRPRPWTLPRP	-0.0151
RRIRYRPPRLPRPRPRPIQDPRP	-0.00166
RRIRDRPPRLPRPRPRPCDWPRP	0.0416

Sequence	shrunken log2 fold change
RRIRVRPPRLPRPRPRPIDEPRP	0.0357
RRIRQRPPRLPRPRPRPVLNPRP	2.89
RRIRCRPPRLPRPRPRPFFGPRP	0.0829
RRIRDRPPRLPRPRPRPTDVPRP	-0.0358
RRIRDRPPRLPRPRPRPQQAPRP	0.0257
RRIRTRPPRLPRPRPRPMKAPRP	0.0679
RRIRIRPPRLPRPRPRPDYMPRP	-1.09
RRIRCRPPRLPRPRPRPCVNPRP	-0.106
RRIRNRPPRLPRPRPRPHLDPRP	0.118
RRIRARPPRLPRPRPRPVRYPRP	2.39
RRIRGRPPRLPRPRPRPGGNPRP	0.0695
RRIRQRPPRLPRPRPRPPRVPRP	0.422
RRIRWRPPRLPRPRPRPRWLPRP	0.224
RRIRIRPPRLPRPRPRPKRKPRP	-0.105
RRIRTRPPRLPRPRPRPIWNPRP	-0.169
RRIRRRPPRLPRPRPRPCRWPRP	0.11
RRIRTRPPRLPRPRPRPEWEPRP	0.0583
RRIRKRPPRLPRPRPRPEIMPRP	1.31
RRIRYRPPRLPRPRPRPPKPPRP	0.144
RRIRPRPPRLPRPRPRPIQTPRP	-0.0617
RRIRNRPPRLPRPRPRPCQKPRP	0.00489
RRIRRRPPRLPRPRPRPPCFPRP	0.741
RRIRCRPPRLPRPRPRPEEHPRP	-0.0578
RRIRWRPPRLPRPRPRPQVLPRP	-0.0271
RRIRCRPPRLPRPRPRPGYSPRP	-0.483

Sequence	shrunken log2 fold change
RRIRIRPPRLPRPRPRPHWRPRP	-0.101
RRIRHRPPRLPRPRPRPQMMPRP	-0.279
RRIRCRPPRLPRPRPRPNSPPRP	-0.217
RRIRPRPPRLPRPRPRPWYKPRP	0.215
RRIRYRPPRLPRPRPRPCCEPRP	-0.567
RRIRMRPPRLPRPRPRPADYPRP	0.0259
RRIRIRPPRLPRPRPRPFKNPRP	-0.188
RRIRNRPPRLPRPRPRPKNYPRP	-0.752
RRIRGRPPRLPRPRPRPKCLPRP	-0.0243
RRIRKRPPRLPRPRPRPKLLPRP	-0.158
RRIRERPPRLPRPRPRPSLLPRP	-0.208
RRIRCRPPRLPRPRPRPGWWPRP	0.054
RRIRCRPPRLPRPRPRPYIPPRP	-0.771
RRIRTRPPRLPRPRPRPLNKPRP	-0.225
RRIRVRPPRLPRPRPRPLRTPRP	0.246
RRIRVRPPRLPRPRPRPWHVPRP	-0.0616
RRIRPRPPRLPRPRPRPPVQPRP	0.341
RRIRRRPPRLPRPRPRPFSQPRP	-0.422
RRIRPRPPRLPRPRPRPTRAPRP	0.707
RRIRRRPPRLPRPRPRPWKMPRP	-0.00577
RRIRDRPPRLPRPRPRPYFHPRP	-0.678
RRIRLRPPRLPRPRPRPTILPRP	0.0347
RRIRRRPPRLPRPRPRPLHSPRP	0.357
RRIRTRPPRLPRPRPRPMENPRP	-0.011
RRIRIRPPRLPRPRPRPSLPPRP	-0.491

Sequence	shrunken log2 fold change
RRIRARPPRLPRPRPRPWTNPRP	0.124
RRIRPRPPRLPRPRPRPPEVPRP	-0.0265
RRIRWRPPRLPRPRPRPLVRPRP	0.151
RRIRDRPPRLPRPRPRPFWVPRP	-0.222
RRIRYRPPRLPRPRPRPITKPRP	-0.184
RRIRCRPPRLPRPRPRPDLHPRP	-0.252
RRIRIRPPRLPRPRPRPQWMPRP	-0.103
RRIRCRPPRLPRPRPRPHQLPRP	-0.465
RRIRQRPPRLPRPRPRPFNEPRP	-0.03
RRIRSRPPRLPRPRPRPEWVPRP	0.146
RRIRGRPPRLPRPRPRPECYPRP	0.25
RRIRTRPPRLPRPRPRPHGMPRP	-0.157
RRIRWRPPRLPRPRPRPVSQPRP	0.139
RRIRDRPPRLPRPRPRPVKSPRP	-0.00931
RRIRGRPPRLPRPRPRPNWFPRP	0.469
RRIRIRPPRLPRPRPRPMPNPRP	-0.0781
RRIRQRPPRLPRPRPRPQSEPRP	-0.173
RRIRHRPPRLPRPRPRPMKEPRP	0.0572
RRIRFRPPRLPRPRPRPSHLPRP	-0.737
RRIRIRPPRLPRPRPRPGNFPRP	-0.064
RRIRVRPPRLPRPRPRPFVNPRP	-0.0619
RRIRMRPPRLPRPRPRPRGQPRP	1.25
RRIRTRPPRLPRPRPRPMMFPRP	-0.0404
RRIRNRPPRLPRPRPRPYTHPRP	-1.12
RRIRGRPPRLPRPRPRPVIRPRP	0.177

Sequence	shrunken log2 fold change
RRIRIRPPRLPRPRPRPWLSPRP	-0.238
RRIRPRPPRLPRPRPRPRLCPRP	0.646
RRIRSRPPRLPRPRPRPPLKPRP	0.0467
RRIRPRPPRLPRPRPRPYARPRP	-0.0595
RRIRMRPPRLPRPRPRPNMDPRP	0.0442
RRIRWRPPRLPRPRPRPNGHPRP	-0.0518
RRIRMRPPRLPRPRPRPRMFPRP	0.154
RRIRTRPPRLPRPRPRPHVLPRP	-0.193
RRIRQRPPRLPRPRPRPQTQPRP	0.025
RRIRRRPPRLPRPRPRPRGHPRP	2.95
RRIRDRPPRLPRPRPRPFCTPRP	-0.0992
RRIRDRPPRLPRPRPRPDFVPRP	1.35
RRIRMRPPRLPRPRPRPTHMPRP	0.362
RRIRRRPPRLPRPRPRPYKRPRP	-0.238
RRIRPRPPRLPRPRPRPERNPRP	-0.307
RRIRCRPPRLPRPRPRPDNMPRP	-1.31
RRIRGRPPRLPRPRPRPHIGPRP	0.109
RRIRERPPRLPRPRPRPYWKPRP	-0.0866
RRIRMRPPRLPRPRPRPCIGPRP	0.0503
RRIRYRPPRLPRPRPRPTVVPRP	-0.477
RRIRYRPPRLPRPRPRPRQCPRP	-0.0146
RRIRSRPPRLPRPRPRPIYEPRP	-0.134
RRIRVRPPRLPRPRPRPSKKPRP	-0.0165
RRIRQRPPRLPRPRPRPPNTPRP	-0.0954
RRIRARPPRLPRPRPRPEDNPRP	0.132
